Several values for one entry are separate records, joined by “and”; a condition that tells them apart may be missing. Equal entries are not always repeated.
What was measured:
[1] = system: Cas12a2 (SuCas12a2) (Sulfuricurvum sp. PC08-66); assay: competition (cleavage inhibition); conditions: phosphorothioate (non-cleavable); Fluorescence anisotropy: 25 mM HEPES pH 7.2, 150 mM KCl, 2 mM MgCl2, 5 ug/ml BSA, 10 nM probe, read at 30 min; temperature not stated
[2] = system: Cas12a2 (SuCas12a2) (Sulfuricurvum sp. PC08-66); assay: fluorescence anisotropy; conditions: phosphorothioate (non-hydrolyzable); Fluorescence anisotropy: 25 mM HEPES pH 7.2, 150 mM KCl, 2 mM MgCl2, 5 ug/ml BSA, 10 nM probe, read at 30 min; temperature not stated

Substance | Ki [1] | Kd [2]
PT-ssRNA inhibitor | 610 nM and 110 nM | 
PT collateral ssRNA |  | 6.7 nM and 37 nM and 19 nM
PT-ssDNA inhibitor | 120 nM and 90 nM and 50 nM | 

— paper PMC13270198
